Measured values as given in patent publication US20100255012A1.
Blank lines part the entries; values can stand above or below the substance they belong to.

Assays:
Experiment in all cases: non-covalent nano-electrospray mass spectrometry at 0.01-10 µM, value at low concentrations; self-association
2F8-HG CH3 mutant F273A = target: 2F8-HG CH3 mutant F273A
2F8-HG-L236V = target: 2F8-HG-L236V
2F8-HG-Y275A = target: 2F8-HG-Y275A

- percentage molecules present as monomers (2F8-HG CH3 mutant F273A): 100%
Substance: 2F8-HG CH3 mutant F273A (antibody)

- percentage molecules present as monomers (2F8-HG-L236V): 100%
Substance: 2F8-HG-L236V (antibody)

- percentage molecules present as monomers (2F8-HG-Y275A): 100%
Substance: 2F8-HG-Y275A (antibody)
